Experimental findings from patent publication US10745439B2, “Kinase substrates and methods of use thereof” (REGENTS OF THE UNIVERSITY OF MINNESOTA, priority 2017, dated 2020) are described below.

Ends that are not written are not given here. * marks the point of attachment. Biotin = O=C1N[C@H]2[C@H](CS[C@H]2CCCCC(=O)*)N1

One assay has as its target Akt (Homo sapiens, UniProt P31749). In words: in vitro time-course kinase assay with Akt and Aktide biosensor (MALDI/TOF/TOF-MS readout). The conditions noted are these: 15 nM kinase, 20 μM peptide, 100 μM ATP, 37° C., time points 0, 30, 60, 120 min; result after 2 hr. Type of assay: biochemical. On the procedure:
FIG. 7. […] The abundance of the biosensor (labeled “Aktide”) and its phosphorylated version (labeled “phospho Aktide”) are shown over four different time points (0, 30, 60, 120 min) which represent the amount of time the peptide was incubated with the kinase.
The in vitro kinase assay was performed with Akt and Aktide biosensor (RRRRRSVDSHGGKbiotinGG (SEQ ID NO:11)). First, the kinase (15 nM final concentration) was pre-incubated in kinase reaction buffer (10 mM HEPES, 10 mM MgCl2, 0.125 ng/μL BSA, 100 μM adenosine triphosphate (ATP), pH 7.5) for 15 minutes. Then the substrate peptide, Aktide (20 μM final concentration), was added and the reaction was kept at 37° C. The reaction was monitored at different time points by removing 20 μL aliquots and quenching with 10 μL of 6 M urea at 0, 30, 60, and 120 minutes. The samples were then desalted with C18 zip tips according to the manufacturer's protocol and analyzed on an Applied Biosystems-Sciex 5800 MALDI/TOF/TOF-MS.

The next assay deals with T1, LKB1 (Homo sapiens, UniProt Q15831).
T1 sequence (Q15831 1-433): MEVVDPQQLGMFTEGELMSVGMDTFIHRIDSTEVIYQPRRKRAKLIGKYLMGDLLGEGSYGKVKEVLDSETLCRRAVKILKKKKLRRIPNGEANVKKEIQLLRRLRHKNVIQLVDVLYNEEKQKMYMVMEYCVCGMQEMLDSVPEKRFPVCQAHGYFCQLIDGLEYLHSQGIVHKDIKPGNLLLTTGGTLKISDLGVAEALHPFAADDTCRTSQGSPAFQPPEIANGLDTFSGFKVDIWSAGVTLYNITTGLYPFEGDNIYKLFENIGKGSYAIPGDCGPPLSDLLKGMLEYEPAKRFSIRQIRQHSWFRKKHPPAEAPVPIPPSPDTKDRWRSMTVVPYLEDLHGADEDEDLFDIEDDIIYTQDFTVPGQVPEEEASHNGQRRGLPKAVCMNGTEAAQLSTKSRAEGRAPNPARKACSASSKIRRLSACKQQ
T1 sequence (Q7RTN6 1-431 partner): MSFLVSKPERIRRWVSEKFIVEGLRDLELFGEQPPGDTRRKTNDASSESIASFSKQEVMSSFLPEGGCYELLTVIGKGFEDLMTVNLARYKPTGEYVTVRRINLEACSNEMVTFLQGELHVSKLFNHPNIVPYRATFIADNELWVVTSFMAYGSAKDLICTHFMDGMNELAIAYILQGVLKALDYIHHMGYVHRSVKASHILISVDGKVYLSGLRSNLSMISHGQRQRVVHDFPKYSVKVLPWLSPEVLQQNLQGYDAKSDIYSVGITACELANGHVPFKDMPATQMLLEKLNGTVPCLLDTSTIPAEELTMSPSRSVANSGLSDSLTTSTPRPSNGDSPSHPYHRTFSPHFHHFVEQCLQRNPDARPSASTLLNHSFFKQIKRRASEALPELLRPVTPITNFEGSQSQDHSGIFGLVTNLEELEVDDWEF
T1 sequence (Q9Y376 1-341 partner): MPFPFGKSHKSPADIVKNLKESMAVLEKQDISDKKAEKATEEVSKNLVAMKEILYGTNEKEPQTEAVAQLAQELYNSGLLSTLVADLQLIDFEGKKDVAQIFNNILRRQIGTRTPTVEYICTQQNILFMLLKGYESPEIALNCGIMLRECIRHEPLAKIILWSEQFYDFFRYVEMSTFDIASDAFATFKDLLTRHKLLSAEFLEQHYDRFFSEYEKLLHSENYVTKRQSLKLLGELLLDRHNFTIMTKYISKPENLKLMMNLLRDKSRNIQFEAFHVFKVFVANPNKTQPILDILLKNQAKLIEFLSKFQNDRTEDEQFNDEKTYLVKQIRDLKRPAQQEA
As to the kind of experiment: in vitro kinase assay screen with LKB1 and candidate biosensor peptides (LC ESI-MS readout). Format: biochemical. The settings on record: 15 nM kinase, 20 μM peptide, 100 μM ATP, 37° C., 3 hr reaction. The method, then: FIGS. 8A-B. FIG. 8A. Results from an initial kinase assay with LKB1 testing candidate biosensor peptide substrate WHLQTWCGYGGKbiotinGG (SEQ ID NO:12). The data shown is the abundance of the peptide and its phosphorylated version (SEQ ID NO:14) after incubation with the kinase for 3 hr. FIG. 8B. Zoomed in version of the spectrum showing relative abundance.
The in vitro kinase assay screen was performed with LKB1 and the candidate biosensor sequence (WHLQTWCGYGGKbiotinGG (SEQ ID NO:12)). First the kinase, (15 nM final concentration), was pre-incubated in kinase reaction buffer (10 mM HEPES, 10 mM MgCl2, 0.125 ng/μL BSA, 100 μM adenosine triphosphate (ATP), pH 7.5) for 15 minutes. Then the substrate peptide, (20 μM final concentration), was added and the reaction was kept at 37° C. The reaction was quenched with 6 M urea and then the sample was desalted with C18 zip tips according to the manufacturer's protocol and analyzed on an Agilent 1200 series LC and Agilent 6130 quadrupole ESI-MS.

Akt, sequence (P31749 whole entry): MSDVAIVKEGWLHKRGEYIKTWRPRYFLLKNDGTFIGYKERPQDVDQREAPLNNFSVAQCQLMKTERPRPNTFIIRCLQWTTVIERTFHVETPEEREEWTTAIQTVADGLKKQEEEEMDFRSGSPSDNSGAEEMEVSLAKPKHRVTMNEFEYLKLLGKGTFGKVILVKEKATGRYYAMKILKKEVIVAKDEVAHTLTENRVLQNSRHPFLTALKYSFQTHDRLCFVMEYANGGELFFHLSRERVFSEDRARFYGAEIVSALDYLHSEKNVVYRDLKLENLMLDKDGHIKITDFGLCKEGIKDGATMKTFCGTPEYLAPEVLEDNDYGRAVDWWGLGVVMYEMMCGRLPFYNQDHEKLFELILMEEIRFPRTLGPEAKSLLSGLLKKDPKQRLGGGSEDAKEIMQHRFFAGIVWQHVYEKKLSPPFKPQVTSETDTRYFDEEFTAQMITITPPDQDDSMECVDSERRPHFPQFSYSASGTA

On to “RRRRRSVDSHGGKbiotinGG (RRRRRSVDSHGGK(Biotin)GG) [artificial Akt substrate peptide biosensor with C-terminal -GGKbiotinGG tag]”, for which, in the assay with Akt, the “phosphorylation of the peptide substrate by Akt (conversion to phosphorylated product)” value was “Nearly complete conversion to phosphorylated product”.

Turning to “WHLQTWCGYGGKbiotinGG (WHLQTWCGYGGK(Biotin)GG) [candidate LKB1 biosensor peptide substrate with C-terminal -GGKbiotinGG tag]”, in the assay with LKB1, the “phosphorylation of the peptide substrate by LKB1” value is “partially phosphorylated”.
